Assay results reported in article PMC10089223 (Proceedings of the National Academy of Sciences of the …, 2022).
Changes are numbered by the printed parent chain. Numbers in names are those of the source.

B1: AtARF2-FL OPCA (D797-8S) (natural protein, Arabidopsis thaliana, UniProt Q94JM3 1-859, looked up)
chain: MASSEVSMKGNRGGDNFSSSGFSDPKETRNVSVAGEGQKSNSTRSAAAERALDPEAALYRELWHACAGPLVTVPRQDDRVFYFPQGHIEQVEASTNQAAEQQMPLYDLPSKLLCRVINVDLKAEADTDEVYAQITLLPEANQDENAIEKEAPLPPPPRFQVHSFCKTLTASDTSTHGGFSVLRRHADECLPPLDMSRQPPTQELVAKDLHANEWRFRHIFRGQPRRHLLQSGWSVFVSSKRLVAGDAFIFLRGENGELRVGVRRAMRQQGNVPSSVISSHSMHLGVLATAWHAISTGTMFTVYYKPRTSPSEFIVPFDQYMESVKNNYSIGMRFKMRFEGEEAPEQRFTGTIVGIEESDPTRWPKSKWRSLKVRWDETSSIPRPDRVSPWKVEPALAPPALSPVPMPRPKRPRSNIAPSSPDSSMLTREGTTKANMDPLPASGLSRVLQGQEYSTLRTKHTESVECDAPENSVVWQSSADDDKVDVVSGSRRYGSENWMSSARHEPTYTDLLSGFGTNIDPSHGQRIPFYDHSSSPSMPAKRILSDSEGKFDYLANQWQMIHSGLSLKLHESPKVPAATDASLQGRCNVKYSEYPVLNGLSTENAGGNWPIRPRALNYYEEVVNAQAQAQAREQVTKQPFTIQEETAKSREGNCRLFGIPLTNNMNGTDSTMSQRNNLNDAAGLTQIASPKVQDLSDQSKGSKSTNDHREQGRPFQTNNPHPKDAQTKTNSSRSCTKVHKQGIALGRSVDLSKFQNYEELVAELDRLFEFNGELMAPKKDWLIVYTDEENDMMLVGSSPWQEFCCMVRKIFIYTKEEVRKMNPGTLSCRSEEEAVVGEGSDAKDAKSASNPSLSSAGNS
B2: AtARF2-FL K2S (K737S) (natural protein, Arabidopsis thaliana, UniProt Q94JM3 1-859, looked up)
chain: B1 chain with K737S, S797D, S798D

Key:
[1] = biological target: AtARF2-DBD (DNA binding domain of Arabidopsis thaliana auxin response factor 2) (Arabidopsis thaliana)
[2] = biological target: the molecule itself
AtARF2-FL OPCA (D797-8S) = biological target: B1

AtARF2-DBD (DNA binding domain of Arabidopsis thaliana auxin response factor 2) (domain or fragment)
Kd [1]: 1900 nM

B1
Kd [2]: 410 nM

B2
Kd (AtARF2-FL OPCA (D797-8S)): 16 nM | Kd [2]: 230 nM
